# Laboratory results published in the supplement of paper PMC9112550, “Optimization of the antimicrobial peptide Bac7 by deep mutational scanning” (BMC Biology, 2022).
# System: Escherichia coli TOP10
# Assay: shrunken log2 fold change of peptide-encoding DNA abundance (4.5 h post-induction vs induction); higher = less antimicrobial activity (less host growth inhibition)
# Settings: time post-induction: 4.5 h; library: site-saturation at positions 5, 18, 19, 20
# 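Further: peptides expressed intracellularly from a pBAD plasmid library in pooled LB shake-flask culture, induced with 0.3% L-arabinose, DNA abundance read by NGS, three biological replicates, DESeq2 with apeglm shrinkage.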
row,Sequence,shrunken log2 fold change
1,RRIRKRPPRLPRPRPRPPICPRP,0.684
2,RRIRSRPPRLPRPRPRPCSIPRP,-0.153
3,RRIRSRPPRLPRPRPRPEVNPRP,0.426
4,RRIRHRPPRLPRPRPRPMTAPRP,-0.135
5,RRIRYRPPRLPRPRPRPWIQPRP,-0.101
6,RRIRWRPPRLPRPRPRPHIIPRP,-0.441
7,RRIRNRPPRLPRPRPRPMWPPRP,-0.00481
8,RRIRTRPPRLPRPRPRPPFSPRP,0.0411
9,RRIRVRPPRLPRPRPRPKWKPRP,-0.0377
10,RRIRARPPRLPRPRPRPGRVPRP,0.612
11,RRIRLRPPRLPRPRPRPDNFPRP,0.0569
12,RRIRTRPPRLPRPRPRPHLIPRP,2.85
13,RRIRWRPPRLPRPRPRPGDYPRP,0.0468
14,RRIRIRPPRLPRPRPRPLTSPRP,-0.188
15,RRIRERPPRLPRPRPRPVNEPRP,-0.224
16,RRIRSRPPRLPRPRPRPDQWPRP,-0.0262
17,RRIRTRPPRLPRPRPRPTECPRP,-0.0493
18,RRIRFRPPRLPRPRPRPFPHPRP,-0.142
19,RRIRVRPPRLPRPRPRPMNFPRP,-0.349
20,RRIRQRPPRLPRPRPRPVSIPRP,0.0429
21,RRIRWRPPRLPRPRPRPKIGPRP,-0.0273
22,RRIRGRPPRLPRPRPRPAADPRP,2.21
23,RRIRERPPRLPRPRPRPEEFPRP,-0.0217
24,RRIRKRPPRLPRPRPRPWTCPRP,-0.0961
25,RRIRSRPPRLPRPRPRPKVQPRP,0.293

row,Sequence,shrunken log2 fold change
1,RRIRARPPRLPRPRPRPYHGPRP,-1.67
2,RRIRNRPPRLPRPRPRPRTCPRP,-0.257
3,RRIRTRPPRLPRPRPRPDVYPRP,0.00573
4,RRIRGRPPRLPRPRPRPDPSPRP,0.414
5,RRIRQRPPRLPRPRPRPRFDPRP,-0.0137
6,RRIRQRPPRLPRPRPRPVHAPRP,0.0261
7,RRIRSRPPRLPRPRPRPNRAPRP,-0.0803
8,RRIRPRPPRLPRPRPRPVYDPRP,-0.711
9,RRIRDRPPRLPRPRPRPGPDPRP,0.217
10,RRIRSRPPRLPRPRPRPAYIPRP,-0.0884
11,RRIRPRPPRLPRPRPRPVESPRP,-0.0537
12,RRIRNRPPRLPRPRPRPNNFPRP,-0.447
13,RRIRQRPPRLPRPRPRPLGPPRP,0.23
14,RRIRIRPPRLPRPRPRPSFVPRP,-0.509
15,RRIRSRPPRLPRPRPRPLIFPRP,-0.403
16,RRIRLRPPRLPRPRPRPVMIPRP,-0.269
17,RRIRDRPPRLPRPRPRPGKPPRP,0.0599
18,RRIRERPPRLPRPRPRPGGRPRP,0.27
19,RRIRKRPPRLPRPRPRPQDHPRP,0.103
20,RRIRARPPRLPRPRPRPHMWPRP,-0.000358
21,RRIRGRPPRLPRPRPRPWGHPRP,0.152
22,RRIRGRPPRLPRPRPRPRSFPRP,-0.0397
23,RRIRRRPPRLPRPRPRPPIGPRP,-0.149
24,RRIRCRPPRLPRPRPRPENQPRP,-0.0366
25,RRIRRRPPRLPRPRPRPEQHPRP,0.592

row,Sequence,shrunken log2 fold change
1,RRIRGRPPRLPRPRPRPFKAPRP,0.2
2,RRIRNRPPRLPRPRPRPCFMPRP,-0.742
3,RRIRGRPPRLPRPRPRPIDVPRP,0.0296
4,RRIRARPPRLPRPRPRPRTRPRP,1.05
5,RRIRARPPRLPRPRPRPQQCPRP,0.132
6,RRIRLRPPRLPRPRPRPDHAPRP,0.0162
7,RRIRGRPPRLPRPRPRPQKVPRP,0.129
8,RRIRFRPPRLPRPRPRPMNAPRP,-0.054
9,RRIRSRPPRLPRPRPRPKLIPRP,-0.257
10,RRIRVRPPRLPRPRPRPVAWPRP,0.421
11,RRIRSRPPRLPRPRPRPIDYPRP,-0.0581
12,RRIRKRPPRLPRPRPRPQMDPRP,0.618
13,RRIRCRPPRLPRPRPRPGRIPRP,-0.231
14,RRIRERPPRLPRPRPRPLAVPRP,-0.0594
15,RRIRYRPPRLPRPRPRPTGCPRP,-0.0275
16,RRIRKRPPRLPRPRPRPTNMPRP,-0.155
17,RRIRIRPPRLPRPRPRPCETPRP,0.105
18,RRIRHRPPRLPRPRPRPHINPRP,-0.563
19,RRIRFRPPRLPRPRPRPTASPRP,0.384
20,RRIRVRPPRLPRPRPRPTKTPRP,0.0337
21,RRIRIRPPRLPRPRPRPSVIPRP,-0.661
22,RRIRPRPPRLPRPRPRPKYGPRP,-0.491
23,RRIRARPPRLPRPRPRPRFNPRP,0.269
24,RRIRGRPPRLPRPRPRPYDWPRP,0.0669
25,RRIRYRPPRLPRPRPRPYPVPRP,0.011
